This is an account of results in patent US20030114404, “Vascular endothelial growth factor (VEGF) nucleic acid ligand complexes” (Gilead Sciences, Inc., published 2003).

B1: VP40.25 (ssRNA)
RNA: GGGAGGACGAUGCGGAAUGGAAUUUGAGUCGAUCUAGAAUGCGUCGUAUGGGCUCAGACGACUCGCCCGA
modifications: 2'-F pyrimidines
B2: VP30.58 (ssRNA)
RNA: GGGAGGACGAUGCGGCAACUAUUCGUUGAUGUUUCCGUGAGCCGUCAGACGACUCGCCCGA
modifications: 2'-F pyrimidines
B3: VP30.65 (ssRNA)
RNA: GGGAGGACGAUGCGGAAAACGCUUUUCUUGGCCCCCUCGUUGCGCCAGACGACUCGCCCGA
modifications: 2'-F pyrimidines
B4: VP30.20 (ssRNA)
RNA: GGGAGGACGAUGCGGUUGAUCGGACGUUAGUCAUUUCCCGAUCGUCAGACGACUCGCCCGA
modifications: 2'-F pyrimidines
B5: VP40.11 (ssRNA)
RNA: GGGAGGACGAUGCGGAAGGAAGAUGUUGAUCGUUUGACGUGAUGUGGAUCCGCGUCAGACGACUCGCCCGA
modifications: 2'-F pyrimidines
B6: VP40.36 (ssRNA)
RNA: GGGAGGACGAUGCGGCAGGUUCAGAAUUGGCAGUCGCAUUGAUCUUUUUCACCGCCAGACGACUCGCCCGA
modifications: 2'-F pyrimidines
B7: VP40.24 (ssRNA)
RNA: GGGAGGACGAUGCGGGAUGCUGAGUGAGGAAGUCUGAUUGUUGCAGUAUUGGCGUCAGACGACUCGCCCGA
modifications: 2'-F pyrimidines
B8: VP30.67 (ssRNA)
RNA: GGGAGGACGAUGCGGUUAACGGAAUUCUUGGAUACAUAGCAUGGUCAGACGACUCGCCCGA
modifications: 2'-F pyrimidines
B9: VP40.18 (ssRNA)
RNA: GGGAGGACGAUGCGGUAGUAAGUUAUUGAAAGCGCAUCUCUAUCAACUCUCGGCCCAGACGACUCGCCCGA
modifications: 2'-F pyrimidines
B10: VP30.40 (ssRNA)
RNA: GGGAGGACGAUGCGGAAACGGAAGAAUUGGAUACGCAAGCACGUUCAGACGACUCGCCCGA
modifications: 2'-F pyrimidines
B11: VP30.35 (ssRNA)
RNA: GGGAGGACGAUGCGGUGAAUGAGCUGACGACCCUGAAUUGCUCGUCAGACGACUCGCCCGA
modifications: 2'-F pyrimidines
B12: VP30.23 (ssRNA)
RNA: GGGAGGACGAUGCGGGAGCUUGAAGUUUCAGUAUUGGCACAACCUCAGACGACUCGCCCGA
modifications: 2'-F pyrimidines
B13: VP30.48 (ssRNA)
RNA: GGGAGGACGAUGCGGGAGCUUGAAGUUUCGGUAUUGGCACAACCUCAGACGACUCGCCCGA
modifications: 2'-F pyrimidines
B14: VP30.61 (ssRNA)
RNA: GGGAGGACGAUGCGGGAGCUUGAAGUUUCAGUACUGGCACAACCUCAGACGACUCGCCCGA
modifications: 2'-F pyrimidines
B15: VP40.26 (ssRNA)
RNA: GGGAGGACGAUGCGGACUCAACUGGACGCUAUGUUGACGGUUAUCGCUUUUGGGUCAGACGACUCGCCCGA
modifications: 2'-F pyrimidines
B16: VP30.63 (ssRNA)
RNA: GGGAGGACGAUGCGGAACCAAUAGAGAUCUUCGGCUGCCCCGCGUCAGACGACUCGCCCGA
modifications: 2'-F pyrimidines
B17: VP40.3 (ssRNA)
RNA: GGGAGGACGAUGCGGCAAAAGUUUGAGUUGAUCUGAUACGUUUCAGUAUUGGCGUCAGACGACUCGCCCGA
modifications: 2'-F pyrimidines
B18: VP40.2 (ssRNA)
RNA: GGGAGGACGAUGCGGAUCUGUGAACUGGGUUUUUGCCGACGGUUACGCUUUUGCUCAGACGACUCGCCCGA
modifications: 2'-F pyrimidines
B19: VP40.5 (ssRNA)
RNA: GGGAGGACGAUGCGGUUGAUCGAGGUUCUAAAGCCUAUUUCCUGACUUUCUCCCCCAGACGACUCGCCCGA
modifications: 2'-F pyrimidines
B20: t2c (ssRNA)
RNA: GAACCGAUGGAAUUUUUGGACGCUC
modifications: 2'-F pyrimidines, N26 = 3'-3' inverted dT [26 = 3'-3' inverted dT (N replaced by T); 2'-F pyrimidines at 4,5,8,13,14,15,16,17,21,23,24,25]
B21: t22 (ssRNA)
RNA: GACGAUGCGGUAGGAAGAAUUGGAAGCGC
modifications: 2'-F pyrimidines, N30 = 3'-3' inverted dT [30 = 3'-3' inverted dT; all C/U at 1-29 = 2'-F]
B22: t44 (ssRNA)
RNA: GCGGAAUCAGUGAAUGCUUAUACAUCCGC
modifications: 2'-F pyrimidines, N30 = 3'-3' inverted dT [30 = 3'-3' inverted dT (N replaced by T); 2'-F pyrimidines at 2,7,8,11,15,17,18,19,21,23,25,26,27,29]
B23: t2d (ssRNA)
RNA: AACCGAUGGAAUUUUUGGACGCU
modifications: 2'-F pyrimidines, N24 = 3'-3' inverted dT [24 = 3'-3' inverted dT (N replaced by T); 2'-F pyrimidines at 3,4,7,12,13,14,15,16,20,22,23]

T1 sequence (P15692 other isoform, or with tags, fused parts or gaps): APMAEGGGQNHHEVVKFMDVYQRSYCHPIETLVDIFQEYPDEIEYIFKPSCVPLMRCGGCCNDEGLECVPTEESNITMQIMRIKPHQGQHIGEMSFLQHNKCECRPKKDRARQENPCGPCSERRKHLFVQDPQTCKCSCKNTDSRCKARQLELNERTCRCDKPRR

The first series addresses T1, VEGF165 (Homo sapiens, UniProt P15692-4 P15692-4:27-191). Nature of the series: filter; 37 C. The conditions noted are these: tags: carrier-free, Sf 21 insect cell expressed, R & D Systems; chain copies: 2 (inferred). Here is the method:
(§1) Nucleic Acid Ligands radiolabeled during transcription by incorporation of α-[³²P]-labeled NTPs, or after synthesis using γ-[³²P]-ATP and T4 polynucleotide kinase, were incubated in low concentration (between 20 and 70 pM) with varying concentrations of VEGF or other growth factors at 37° C. for 15 minutes. Incubations were in TBS, PBS, or HEPES-buffered saline (HBS), pH 7.4, with or without the addition of supplemental divalent cations. Samples were passed through prewashed 0.45 μ Type HA filters (Millipore) followed by a 5-10 ml wash with binding buffer. Filters were immersed in scintillant and counted to quantitate the amount of protein-bound RNA retained by each filter. The equilibrium dissociation constant (KD) of Nucleic Acid Ligand binding to a specific protein was calculated from the data points as described in Green et al. (1996) Biochem. 35: 14413-14424.
Consider B1, for which the Kd (in general, the concentration at which binding is half-saturated) came to 0.74 nM.

B2 returned a dissociation constant (Kd) of 0.006 nM.

In turn, B3 returned a Kd of 0.033 nM.

For B4, the affinity, expressed as Kd, was 0.057 nM.

Molecule B5 came in with a Kd of 0.98 nM.

For the molecule B6, the Kd came out at 1.3 nM.

The molecule B7 had a Kd of 5 nM.

In the case of B8, binding was put at a Kd of 0.024 nM.

Molecule B9 gave a Kd of 0.012 nM.

As for B10, the equilibrium dissociation constant (Kd) was found to be 0.006 nM.

B11: the dissociation constant (Kd) came to 0.006 nM.

Turning to B12, the Kd was 0.063 nM.

As to B13, the Kd was above 10 nM.

In turn, B14 displayed a dissociation constant (Kd) of 0.043 nM.

As for B15, the dissociation constant Kd was determined as 0.013 nM.

For B16, binding was put at a Kd of 0.016 nM.

For B17, binding was characterised by a dissociation constant (Kd) of 2 nM.

B18 showed an equilibrium dissociation constant (Kd) of 0.035 nM.

The molecule B19 showed a dissociation constant Kd of 0.019 nM.

The next series deals with T1, VEGF165. The series is described as follows: filter; 37 C. The conditions noted are these: tags: carrier-free, Sf 21 insect cell expressed, R & D Systems; chain copies: 2 (inferred). The source holds these as a separate data set. The procedure: as §1
Stabilization of oligonucleotides to nucleases is likely to be critical to their success as therapeutic or diagnostic agents. Unfortunately, 2′-OMe-modified nucleoside triphosphates are not generally accepted as substrates by RNA polymerases under standard reaction conditions. However, 2′-OMe purines may be introduced into a specific oligonucleotide by chemical synthesis. […] To identify those purine positions for which 2′-OMe substitution is compatible with high affinity binding to VEGF, several syntheses of ligands t2, t22 and t44 were prepared in which five or six purines at a time were partially substituted with the modified nucleotide (described in Example 3). Affinity selection of each partially substituted library was used to isolate those molecules that retained substantial affinity for VEGF.
Consider GACGAUGCGGUAGGAAGAAUUGGAAGCGC (ssRNA, 2'-F pyrimidines, 2'-OMe purines except 2'-OH G10, A12) [t22OMe (OH-10,12)], for which the Kd was 0.02 nM.

As for GACGAUGCGGUAGGAAGAAUUGGAAGCGC (ssRNA, 2'-F pyrimidines, 2'-OMe purines except 2'-OH G10, G22) [t22OMe (OH-10,22)], the dissociation constant (Kd) was 4 nM.

With GCGGAAUCAGUGAAUGCUUAUACAUCCGC (ssRNA, 2'-F pyrimidines, 2'-OMe purines except 2'-OH A5, A6) [t44OMe (OH-5,6)], the Kd is 0.04 nM.

Molecule GGCGAACCGAUGGAAUUUUUGGACGCUCGCC (ssRNA, 2'-F pyrimidines, 2'-OMe purines except 2'-OH A6, G21) [t2OMe (OH-6,21)] registered a Kd of 0.06 nM.

GGCGAACCGAUGGAAUUUUUGGACGCUCGCC (ssRNA, 2'-F pyrimidines, 2'-OMe purines except 2'-OH A6) [t2OMe (OH-6)] yielded a Kd of 0.5 nM.

Take GGCGAACCGAUGGAAUUUUUGGACGCUCGCC (ssRNA, 2'-F pyrimidines, 2'-OMe purines except 2'-OH G21) [t2OMe (OH-21)]: the Kd was determined as 20 nM.

In turn, GACGAUGCGGUAGGAAGAAUUGGAAGCGC (ssRNA, 2'-F pyrimidines, 2'-OMe purines except 2'-OH A12, G22) [t22OMe (OH-12,22)] came in with a Kd of 0.09 nM.

In the case of GACGAUGCGGUAGGAAGAAUUGGAAGCGC (ssRNA, 2'-F pyrimidines, 2'-OMe purines except 2'-OH G10, A12, G22) [t22OMe (OH-10,12,22)], the affinity, expressed as Kd, was 0.01 nM.

For a further series, the target named is T1, VEGF165. The series is described as follows: filter; 37 C. The conditions noted are these: tags: carrier-free, Sf 21 insect cell expressed, R & D Systems; chain copies: 2 (inferred). The source holds these as a separate data set. Here is the method: as §1
The shared primary and secondary structural motifs that define each sequence family hint at the minimal sequence elements required for high affinity binding to VEGF. Nested truncations of a representative ligand from each family (indicated by gray boxes in Table 2) were produced by chemical synthesis and their relative affinities for VEGF were determined (Table 3). Truncated versions of ligands VP30.22, VP30.2 and VT30.44 were prepared by chemical synthesis and their affinities for VEGF were determined as described in Example 3. Initial truncations (t22, t2, t44) were further refined by synthesis of oligonucleotides with additional bases lacking from the 5′ and/or 3′ ends. In order to initiate the chemical synthesis, the 3′-most nucleotide of several of the ligands was modified either by substitution of 2′-OH-cytidine for 2′-F-cytidine (underlined) or by addition of a 3′-3′-linked deoxythymidine “cap” (asterisks). The length of each oligonucleotide (minus the cap) and its high affinity KD for binding to VEGF are shown.
As for B20, the Kd came to 0.2 nM.

As for B21, the affinity, expressed as Kd, was 0.07 nM.

Molecule B22 came in with a Kd of 0.01 nM.

Regarding GCGAACCGAUGGAAUUUUUGGACGCUCGC (ssRNA, 2'-F pyrimidines except 2'-OH C29) [t2a], the equilibrium dissociation constant (Kd) stood at 0.04 nM.

In turn, GGAAUCAGUGAAUGCUUAUACAUCC (ssRNA, 2'-F pyrimidines except 2'-OH C25) [t44b] gave a Kd of 0.06 nM.

CGAACCGAUGGAAUUUUUGGACGCUCG (ssRNA, 2'-F pyrimidines) [t2b] returned an equilibrium dissociation constant (Kd) of 0.1 nM.

Molecule GCGGUAGGAAGAAUUGGAAGCGC (ssRNA, 2'-F pyrimidines except 2'-OH C23) [t22c] showed a Kd of 0.09 nM.

CGGAAUCAGUGAAUGCUUAUACAUCCG (ssRNA, 2'-F pyrimidines) [t44a] came in with a dissociation constant Kd of 0.01 nM.

As to GACGAUGCGGUAGGAAGAAUUGGAAGCG (ssRNA, 2'-F pyrimidines) [t22a], the dissociation constant (Kd) turned out to be 3 nM.

Turning to CGGUAGGAAGAAUUGGAAGCGC (ssRNA, 2'-F pyrimidines except 2'-OH C22) [t22d], the affinity, expressed as Kd, was 0.1 nM.

For ACGAUGCGGUAGGAAGAAUUGGAAGCGC (ssRNA, 2'-F pyrimidines except 2'-OH C28) [t22b], the Kd came to 0.08 nM.

B23 had an equilibrium dissociation constant (Kd) of 20 nM.
